Data taken from article PMC9755798, “Transcription factor CsESE3 positively modulates both jasmonic acid and wax biosynthesis in citrus”.

B1: Probe_PLIP (CsPLIP1 promoter GCC-box) (dsDNA)
DNA 1: GAGCCTCACTAGCCGCCATTGTCCCCG
DNA 2: CGGGGACAATGGCGGCTAGTGAGGCTC
B2: Probe_PLIP_Like (CsPLIP_Like promoter GCC-box) (dsDNA)
DNA 1: AAATAAACTAAGCCGCCTTGTCATATT
DNA 2: AATATGACAAGGCGGCTTAGTTTATTT

How the values were obtained:
[1] = target: T1, CsESE3 (Citrus sinensis? ('Newhall' navel …, UniProt A0ACB8NL77 1-192)); assay: EMSA; shift attenuated by excess (up to 28x) cold probe; EMSA as in Gong et al. 2021b; buffer, salt, pH and temperature not given; 5' FAM probes, 100 uM unlabeled competitor stocks, 7x/14x/28x excess; details: protein: recombinant; tags: N-terminal His (pETDuet); label: 5' FAM (top strand); blunt
T1 sequence (A0ACB8NL77 entry or part of it): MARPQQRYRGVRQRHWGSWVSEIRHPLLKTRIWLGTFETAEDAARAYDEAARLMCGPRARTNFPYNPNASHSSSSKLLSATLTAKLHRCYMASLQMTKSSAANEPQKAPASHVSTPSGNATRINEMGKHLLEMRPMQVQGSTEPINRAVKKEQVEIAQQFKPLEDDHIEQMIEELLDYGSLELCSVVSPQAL

[2] = target: T1, CsESE3; assay: EMSA; EMSA as in Gong et al. 2021b; buffer, salt, pH and temperature not given; 5' FAM probes, 100 uM unlabeled competitor stocks, 7x/14x/28x excess; details: protein: recombinant; tags: N-terminal His (pETDuet); label: 5' FAM (top strand); blunt

| Binder | binding result [1] | binding result [2] |
| --- | --- | --- |
| B1 | binds |  |
| B2 |  | binds |
